Experimental findings from patent US20110064653A1 (IMMUNOMEDICS, published 2011) are described below.

The target of assay [1] is CEACAM6 (NCA-90) on cells (human) (UniProt P40199). In words: cell-based or functional assay.
The target of assay [2] is CEACAM5/CEACAM6. Briefly: cell-based or functional assay.
Assay [3] has as its target T1, carcinoembryonic antigen (CEA) (human, UniProt P06731 35-685).
T1 construct: also called CEACAM5; CD66e
T1 sequence (looked up): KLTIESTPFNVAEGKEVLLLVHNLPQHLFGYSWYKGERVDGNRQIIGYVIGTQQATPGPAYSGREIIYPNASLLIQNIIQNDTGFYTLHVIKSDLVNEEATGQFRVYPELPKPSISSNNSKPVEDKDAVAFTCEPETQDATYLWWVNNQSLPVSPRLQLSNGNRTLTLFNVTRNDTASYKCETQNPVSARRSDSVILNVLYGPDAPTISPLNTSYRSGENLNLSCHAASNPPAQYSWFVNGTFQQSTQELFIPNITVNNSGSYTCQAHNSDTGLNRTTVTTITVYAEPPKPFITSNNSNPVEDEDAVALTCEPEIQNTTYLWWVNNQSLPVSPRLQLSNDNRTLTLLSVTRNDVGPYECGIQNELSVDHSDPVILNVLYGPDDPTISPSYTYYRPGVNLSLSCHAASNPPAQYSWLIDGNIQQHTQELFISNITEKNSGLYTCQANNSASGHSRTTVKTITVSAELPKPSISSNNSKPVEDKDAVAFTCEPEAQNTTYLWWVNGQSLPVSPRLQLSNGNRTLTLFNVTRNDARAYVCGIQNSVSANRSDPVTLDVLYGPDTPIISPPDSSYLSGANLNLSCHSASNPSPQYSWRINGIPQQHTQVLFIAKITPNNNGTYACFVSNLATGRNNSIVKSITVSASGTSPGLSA
Briefly: 125I-CEA radioimmunoassay.

In assay [4] the target is T1, carcinoembryonic antigen (CEA). In words: radioiodinated MAb (100 ng/ml) with increasing CEA; free versus bound antibody by HPLC sizing gel.
The target is the same in assay [5]. In words: competitive binding assay on CEA; unlabeled competitor varied against HRP-labeled murine MN-15.
Assay [6] has as its target CEACAM5/CEACAM6. In words: cell-based or functional assay. This is another data set of the same source.
Another assay deals with T2, NCA-95 on HeLa cells (UniProt P31997 35-320, limits assumed).
T2 construct: whole, on cells; also called HeLa-CGM6/1
T2 sequence (looked up): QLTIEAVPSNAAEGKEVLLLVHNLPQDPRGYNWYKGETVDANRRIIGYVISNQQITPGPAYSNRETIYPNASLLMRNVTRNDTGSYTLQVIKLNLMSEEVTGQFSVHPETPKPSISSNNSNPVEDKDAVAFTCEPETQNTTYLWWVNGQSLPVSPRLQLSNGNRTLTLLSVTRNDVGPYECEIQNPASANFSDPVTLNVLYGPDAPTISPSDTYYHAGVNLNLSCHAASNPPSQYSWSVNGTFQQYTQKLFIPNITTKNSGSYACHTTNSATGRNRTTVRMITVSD
Briefly: indirect flow cytometry on HeLa-CGM6/1 transfectants. As to the method: The reacitivty of antibodies was tested by flow cytometry with a Becton-Dickinson FACSCAN®. The biotinylated second antibody was directed against mouse IgG and was detected by a streptavidin/phycoerythrin conjugate. Tests were carried out with antibodies at 1/50 dilution of 1 mg/ml stocks.
The antibodies MN-3 and MN-15 were tested for recognition of HeLa cells transfected with cDNA coding for CEA (HeLa-CEA2), NCA-90 (HeLa-KNC6/S44) and NCA-95 (HeLa-CGM6/1). As a negative control, HeLa cells transfected with the plasmid pSV2-Neo (control HeLa cells, HeLa-NeoA) were used. In addition to the antibodies MN-3 and MN-15, three control antibodies were included: […]

Like-named read-outs stand apart in the source and are kept apart here.

On to MN-3 Fab′, for which, in assay [1], the reduction of cell invasion, BXPC3, collagen-based invasion assay was 0%; the reduction of cell invasion, CaPAN-1, collagen-based invasion assay was 55%; the reduction of cell invasion, LS174T, collagen-based invasion assay was 3%; the reduction of cell invasion, MCF-7, collagen-based invasion assay came to 47%. Further, the reduction of cell invasion, ZR75-30, collagen-based invasion assay in assay [1] worked out at 59%. This molecule also displayed an adhesion-inhibition of MCF-7, HT-29, BT-20 and Moser cells to endothelial cells with CEACAM5/CEACAM6 [2] of 49 to 58%.
As for NP-4 antibody, the percent of radioiodinated CEA bound in assay [3] was under 50%. Also, the CEA concentration for 50% complexation of the antibody in assay [4] was in the range of 1 to 2 µg/mL.

B1: humanized MN-15 antibody (antibody, V domains shown)
VH: QVQLVESGGGVVQPGRSLRLSCSSSGFALTDYYMSWVRQAPGKGLEWLGFIANKANGHTTDYSPSVKGRFTISRDNSKNTLFLQMDSLRPEDTGVYFCARDMGIRWNFDVWGQGTPVTVSS
VL: DIQLTQSPSSLSASVGDRVTMTCSASSRVSYIHWYQQKPGKAPKRWIYGTSTLASGVPARFSGSGSGTDFTFTISSLQPEDIATYYCQQWSYNPPTFGQGTKVEIKR
notes: Humanized variable regions (REI VK and KOL VH frameworks) cloned alongside human IgG1 constant region genes; also called hMN-15
With B1, the “IC50 (read off the curve)” value in assay [5] was about 5 nM.

B2: MN-15 Fab′ (Fab, V domains shown)
VL: DIQLTQSPAIMSASPGEKVTMTCSASSRVSYIHWYQQKSGTSPKRWIYGTSTLASGVPARFSGSGSGTSYSLTISSMEAEDAATYYCQQWSYNPPTFGAGTKLELKR
VH: EVRLVESGGGLVQGPGSLRLSCAASGFALTDYYMSWVRQSPGKTLEWLGFIANKANGHTTDYSPSVKGRFTISRDNSQTILYLQMNTLRTEDSATYYCARDMGIRWNFDVWGQGTTVTVSS
For B2, the adhesion-inhibition of MCF-7, HT-29, BT-20 and Moser cells to endothelial cells with CEACAM5/CEACAM6 [6] lay in the range of 49 to 58%.

B3: murine MN-15 antibody (antibody, mouse IgG1, V domains shown)
VH: EVRLVESGGGLVQGPGSLRLSCAASGFALTDYYMSWVRQSPGKTLEWLGFIANKANGHTTDYSPSVKGRFTISRDNSQTILYLQMNTLRTEDSATYYCARDMGIRWNFDVWGQGTTVTVSS
VL: DIQLTQSPAIMSASPGEKVTMTCSASSRVSYIHWYQQKSGTSPKRWIYGTSTLASGVPARFSGSGSGTSYSLTISSMEAEDAATYYCQQWSYNPPTFGAGTKLELKR
notes: also called mMN-15; MN-15 IgG
Regarding B3, the “IC50 (read off the curve)” value in assay [5] is about 5 nM. In addition, in the assay with CEACAM5/CEACAM6 [6], the decrease of adhesion of CaPAN-1 cells to fibronectin came out at 47%, the decrease of adhesion of MCF-7 cells to fibronectin stood at 29% and the decrease of adhesion of MDA-468 cells to fibronectin was 51%. Also, the binding result with NCA-95 on HeLa cells is recorded as “binds”.

B4: chimeric MN-15 antibody (antibody, V domains shown)
VH: EVRLVESGGGLVQGPGSLRLSCAASGFALTDYYMSWVRQSPGKTLEWLGFIANKANGHTTDYSPSVKGRFTISRDNSQTILYLQMNTLRTEDSATYYCARDMGIRWNFDVWGQGTTVTVSS
VL: DIQLTQSPAIMSASPGEKVTMTCSASSRVSYIHWYQQKSGTSPKRWIYGTSTLASGVPARFSGSGSGTSYSLTISSMEAEDAATYYCQQWSYNPPTFGAGTKLELKR
As for B4, in assay [5], the “IC50 (read off the curve)” value was about 5 nM.
